The values that follow come from patent CN117836321A.

The term Kd denotes the constant that tells how readily two partners part at equilibrium. Low readings indicate tighter binding, high ones weaker binding.

The target of this assay is VV B5单体蛋白 (Wyeth牛痘毒株的B5序列, C-末端AVI标签和HIS6标签) (牛痘病毒 Wyeth毒株).

B1: A048亲本抗B5 hIgG1 (antibody, V domains shown)
VH: QEQLEESGGGLVKPEGSLTLTCTASGFSFSSSYYMCWVRQAPGRGLEWIACIYTSSGSAYYANWAKGRFTISRTSSTTVTLQMTRLTAADTATYFCVRNAVGSSYYLYLWGPGTLVTVSS
VL: AQVLTQTPSPVSAAVGGTVTISCQASQSVAGNNYLSWYQQKPGQPPNLLIYSVSTLASGVPSRFKGSGSGTQFTLTISDLECDDAATYYCQGYYNDGIWAFGGGTEVVVK
For B1, the Kd amounted to 9.5 nM.
